Data taken from a protein production outcome set (Wang et al. 2014).

Assay: label from the status in PepcDB records

Row | Sequence | protein production
1 | WMVQDSVGSGAALASLEGEETGRLWLAAQPEHGFQTLQGLAYALAREVRRLQPDSPYRLAGKGVLGALAYEVGLQLRGMGQTVACVALEGAPAWVRQSEALAVERSQASLPAWLRRCLSSYVPEPGDFPLQPTNMPASAEAFWRALG | failed
2 | WQWDLATNKFIYSDNQHRLLGVERDSFESSNDAFINFVHPEDRHVIKNGERMVLDEQQSSVAFFRVIRKDGQMRYFKSIGKLLTDSSGNKILIGINNDITEEH | failed
3 | WRQRDEAEFTGVDDIPVRFVRFRAQHHDRVVVICPGRIESYVKYAELAYDLFHLGFDVLIIDHRGQGRSGRLLADPHLGHVNRFNDYVDDLAAFWQQEVQPGPWRKRYILAHSMGGAISTLFLQRHPGVCDAIALTAPMFGIVIRMPSFMARQILNWAEAHPRFRDGYAIGTGRWRALPFAINVLTHSRQRYRRNLRFYADDPTIRVGGPTYHWVRESILAGEQVLAGAGDDATPTLLLQAEEERVVDNRMHDRFCELRTAAGHPVEGGRPLVIKGAYHEILFEKDAMRSVALHAIVDFFNRHN | failed
4 | WWNWKGHEVHLDCFRNEKAPVKVILLHGVGTNGRQMSMILGGPLSKDGFETIAIDMPTYGVTKVKKGSVVKYDDWVDLACDYIDYEQQRDDRPIVLYGLSAGGMETYHVAAKNKKVKGIIGMTFLDQKNQQVRDETAKNLVMSRVGIPMAGIACNIGLENFKMKMSTASKMSALCNNEKVMEIFNRDKTSAANKASMRFLDSYGNYQPAMEPEDFDVCPILLTQPEQDKWTPLHLSTPFLNKIKKVDVKIVMLENGGHYPVEQPALDQMHDAIVEFIYKVTK | failed
5 | XRKPILAALTLAGLGLAQEFITIGSGSTTGVYFPVATGIAKLVNDANVGIRANARSTGGSVANINAINAGEFEXALAQNDIAYYAYQGCCIPAFEGKPVKTIRALAALYPEVVHVVARKDAGIRTVADLKGKRVVVGDVGSGTEQNARQILEAYGLTFDDLGQAIRVSASQGIQLXQDKRADALFYTVGLGASAIQQLALTTPIALVAVDLNRIQAIAKKYPFYVGFNIPGGTYKGVDVTTPTVAVQAXLIASERLSEETVYKFXKAVFGNLEAFKKIHPNLERFFGLEKAVKGLPIPLHPGAERFYKEAGVLK | not failed
6 | YIGLVNSFAQKKKLSVNYEQCEPNSELPQRFICKCKIGQTMYGTGSGVTKQEAKQLAAKEAYQKLLKSPPKTAGT | not failed
7 | YPLRKTQAVQSTQFDSRHSFVTKLKPYADKAARMLGVDSSLLIAQAALETGWGQKMVKNARGNSNNLFNIKADRSWQGDKVATQTLEYHNNVPVVEKAAFRSYASFDESFNDYVRFLENNPRYTNALDHGGNSERFIHGIHRAGYATDPQYADKVLRVKAQIDQMNL | failed
8 | YRQSQSRAARLRLLVDTGQELIQLPPEAMRKCVLQRACAFVAMDHGLLLEWGADNGVQTTARHGSKERLSTLETTADPLAIGPQWLERPGTHLPCVLLLPLRGADEGSFGTLVLANSVAISAPDGEDIESLQLLATLLAAHLENNRLLEALVARDRT | not failed
9 | YWGPLDVGEAKSLPGMEDPKLVYIPSIAPSNMVLYRGDKYSELDGKILVGALKLTHINVVGINDGKLTESQRLLEKLGERIRDITISPDGYIYFSTDSGKIFRLTEQ | failed
10 | YYNPVRYPERTKERRDLVLRLLMQQNMLTSQQYEQAVSRPLDTQSKPRIASRQPAYFQQLNIELKEKVGDRFKAETGL | failed
